Experimental data taken from article PMC10539048.

Molecular target: filamentous actin polymerized from human platelet actin (human) (UniProt P60709)
Assay: co-sedimentation

Q: Which percent reduction of actin-binding activity relative to WT does the source give for “human MAP2C T293E (from UniProt P11137-2 1-471) (natural protein)” here?
A: 43%

Q: How did the percent reduction of actin-binding activity relative to WT turn out when “human MAP2C T300E (from UniProt P11137-2 1-471) (natural protein)” was run?
A: 43%
